Measurements published in paper PMC7042235.

Target: microtubules (polymerized porcine tubulin) (porcine) (UniProt P02550)
Assay: co-sedimentation; purified MTBDs (1-32 uM) mixed with 5 uM paclitaxel-stabilised porcine MTs; 100 mM PIPES pH 6.8, 50 mM NaCl, 2 mM MgCl2, 1 mM EGTA; 210,000 x g, 25 °C, 10 min; pellets on SDS-PAGE, densitometry, one-site curve fitting

## MTBD-WT (microtubule-binding domain of yeast cytoplasmic dynein, K3096-E3232) (from UniProt P36022 3096-3232) (domain or fragment)
  Kd: 6.7 µM
